Test [1] deals with T1, recombinant human syndecan-1 (human, UniProt P18827 23-254, limits assumed).
T1 construct: Histidine tag of unstated position and length
T1 sequence (looked up): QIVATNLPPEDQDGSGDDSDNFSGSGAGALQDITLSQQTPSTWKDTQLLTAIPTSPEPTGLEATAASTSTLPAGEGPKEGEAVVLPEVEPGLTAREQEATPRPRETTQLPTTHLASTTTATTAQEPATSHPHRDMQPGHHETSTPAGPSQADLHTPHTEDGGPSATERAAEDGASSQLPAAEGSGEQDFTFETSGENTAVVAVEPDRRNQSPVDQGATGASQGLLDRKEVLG
Put plainly: ELISA, peptide coated, syndecan 1 µg/mL, anti-His detection. The protocol: (§1) ELISA tests were performed as described above. In brief, ELISA plates were coated with 1 μg/mL laminin peptide (sequences are described in Table 1, chemically synthesized by Genscript) in PBS for 2 hrs at 37° C. 1 μg/mL of BSA served as non-binding protein control. After blocking with 2% BSA PBS-T solution, 1 μg/mL of the recombinant human syndecan-1, syndecan-2, syndecan-3, syndecan-4 (all syndecan proteins are histidine-tagged; SinoBiological) were added. Bound GF was detected with anti-histidine tag antibody (1:1000 dilution, BioLegend).

Test [2] concerns the target T2, recombinant human syndecan-2 (human, UniProt P34741 19-144, limits assumed).
T2 construct: Histidine tag of unstated position and length
Described as above. On the procedure:
as §1

Test [3] concerns the target T3, recombinant human syndecan-4 (human, UniProt P31431 19-145, limits assumed).
T3 construct: Histidine tag of unstated position and length
T3 sequence (looked up): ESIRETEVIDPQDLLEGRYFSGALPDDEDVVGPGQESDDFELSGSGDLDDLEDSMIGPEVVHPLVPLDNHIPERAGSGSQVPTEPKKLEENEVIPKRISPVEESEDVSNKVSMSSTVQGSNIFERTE
Described as above. The protocol: as §1

Test [4] has as its target T4, platelet-derived growth factor (PDGF)-BB (human, UniProt P01127 82-190).
T4 construct: mature; Purchased in mature form
Put plainly: ELISA, peptide coated, GF 1 µg/mL. The protocol: (§2) (A) The location of laminin-derived peptides in the LG domain of laminin α3, α4, and α5 chains. (B-F) Affinity of heparin and GFs against chemically synthesized peptides derived from the LG domain of laminin α3, α4, and α5 chains. ELISA plates were coated with 10 μg/mL laminin peptide and further incubated with (B) biotinylated heparin, (C) VEGF-A165 and VEGF-A121, (D) PlGF-2 and PlGF-1, (E) PDGF-BB, or (F) FGF-2. Concentrations were 1 μg/mL for GFs and 10 μg/mL for heparin. Bound heparin was detected with streptavidin, and bound GFs with a specific antibody for each GF (n=4, mean±SEM). Statistical analyses were done using the Mann-Whitney U test by comparing the signals obtained from the laminin peptide- and the BSA-coated wells. *p<0.05, **p<0.01.
(§3) ELISA tests were performed as described above. […] 1 μg/mL of BSA served as non-binding protein control. After blocking with 2% BSA PBS-0.05% Tween 20 (PBS-T) solution, 1 μg/mL of the recombinant human proteins (VEGF-A121, VEGF-A165, PlGF-1, PlGF-2, PDGF-BB or FGF-2) or 10 μg/mL of biotinylated heparin (Sigma-Aldrich) were added. Bound GF was detected with biotinylated antibodies for human VEGF, PlGF, PDGF-BB, or FGF-2 (R&D Systems). The antibodies were detected by streptavidin-HRP (R&D Systems).
(In general: ELISA stands for enzyme-linked immunosorbent assay.)

Test [5] addresses T5, fibroblast growth factor (FGF)-2 (human, UniProt P09038 143-288).
T5 construct: mature; Purchased in mature form
Description: ELISA, peptide coated, GF 1 µg/mL. The protocol: as §2, §3

Test [6] concerns the target T6, vascular endothelial growth factor (VEGF)-A165 (human, UniProt P15692-4 27-191).
T6 construct: mature; Purchased in mature form, not glycosylated
Put plainly: ELISA, peptide coated, GF 1 µg/mL. The protocol:
as §2, §3

Test [7] concerns the target T7, placental growth factor (PlGF)-2 (human, UniProt P49763-3 19-170).
T7 construct: mature; Purchased in mature form
T7 sequence (looked up): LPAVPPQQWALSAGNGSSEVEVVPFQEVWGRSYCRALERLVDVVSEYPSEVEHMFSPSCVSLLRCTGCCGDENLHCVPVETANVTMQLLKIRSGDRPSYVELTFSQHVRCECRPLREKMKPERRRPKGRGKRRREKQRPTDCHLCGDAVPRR
Description: ELISA, peptide coated, GF 1 µg/mL. The protocol: as §2, §3

The target in test [8] is T8, placental growth factor (PlGF)-1 (human, UniProt P49763-2 19-149).
T8 construct: mature; Purchased in mature form
T8 sequence (looked up): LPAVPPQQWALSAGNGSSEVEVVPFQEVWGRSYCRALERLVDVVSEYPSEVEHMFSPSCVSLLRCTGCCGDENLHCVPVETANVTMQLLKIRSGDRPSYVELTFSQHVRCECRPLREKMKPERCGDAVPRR
Description: ELISA, peptide coated. On the procedure: as §2, §3

The target of test [9] is T9, vascular endothelial growth factor (VEGF)-A121 (human, UniProt P15692-9 27-147).
T9 construct: mature; Purchased in mature form, not glycosylated
T9 sequence (looked up): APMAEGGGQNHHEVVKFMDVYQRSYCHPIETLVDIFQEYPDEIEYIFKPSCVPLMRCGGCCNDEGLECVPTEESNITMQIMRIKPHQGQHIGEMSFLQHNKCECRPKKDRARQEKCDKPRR
Description: ELISA, peptide coated. The protocol:
as §2, §3

The target in test [10] is T4, platelet-derived growth factor (PDGF)-BB. Description: ELISA, HBD peptides.
In test [11] the target is T5, fibroblast growth factor (FGF)-2. Put plainly: ELISA, HBD peptides.
In test [12] the target is T6, vascular endothelial growth factor …. Description: ELISA, HBD peptides.
Target sequence in this assay (P15692 other isoform, or with tags, fused parts or gaps limits assumed): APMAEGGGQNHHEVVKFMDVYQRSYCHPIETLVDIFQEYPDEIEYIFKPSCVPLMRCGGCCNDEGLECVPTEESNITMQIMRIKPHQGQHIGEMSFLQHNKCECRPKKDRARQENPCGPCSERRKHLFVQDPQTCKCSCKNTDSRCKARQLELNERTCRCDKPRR
In another test the target is T10, human plasma-derived vWF (human, UniProt P04275 764-2813).
T10 construct: mature; also called plasma-derived purified vWF; von Willebrand factor
Put plainly: ELISA, GF coated 50 nM, vWF 1 µg/mL. On the procedure: ELISA tests were performed as previously reported1. In brief, ELISA plates (med-binding, Greiner Bio-One) were coated with 50 nM GFs at 37° C. for 2 hrs. […] Then, HRP conjugated goat anti-rabbit antibody (Jackson ImmunoResearch) was added. After 60 min of incubation, 50 μL TMB substrate (Sigma-Aldrich) was added. The reaction was stopped by adding 25 μL of 2N H2SO4. Subsequently, the absorbance at 450 nm was measured and subtracted the absorbance at 570 nm.

The target in the next test is T11, laminin-111 (human, UniProt P25391 18-3075; P07942 22-1786; P11047 34-1609).
T11 construct: Full-length recombinant human laminin isoform (BioLamina); Chain composition is read from the isoform name
Put plainly: ELISA, GF coated, laminin 10 nM. The protocol: (§4) ELISA tests were performed as previously reported. In brief, ELISA plates (med-binding, Greiner Bio-One) were coated with 50 nM GFs at 37° C. for more than 2 hrs. […] Bound laminin was detected with rabbit anti-human laminin γ1 chain antibody (1:1000 dilution, Assay biotech) or rabbit anti-human laminin α3 chain antibody (1:1000 dilution, Assay biotech). After incubation with biotinylated anti-rabbit antibody for 60 min at room temperature (RT), HRP conjugated streptavidin (Jackson ImmunoResearch) was added. After 60 min of incubation at RT, 50 μL TMB substrate (Sigma-Aldrich) was added. The reactions were stopped by adding 25 μL of 2 N H₂SO₄. Subsequently, the absorbance at 450 nm was measured with a reference of 570 nm.

For another test, the target named is T12, laminin-521 (human, UniProt O15230 36-3695; P55268 33-1798; P11047 34-1609).
T12 construct: Full-length recombinant human laminin isoform (BioLamina); chains read from the isoform name
Description: ELISA, GF coated, laminin 10 nM. The protocol: as §4

The next test deals with T13, laminin-411 (human, UniProt Q16363 25-1823; P07942 22-1786; P11047 34-1609).
T13 construct: Full-length recombinant human laminin isoform (BioLamina); chains read from the isoform name
Description: ELISA, GF coated, laminin 10 nM. The protocol: as §4

The target in another test is T14, laminin-211 (human, UniProt P24043 23-3122; P07942 22-1786; P11047 34-1609).
T14 construct: Full-length recombinant human laminin isoform (BioLamina); chains read from the isoform name
Description: ELISA, GF coated, laminin 10 nM. On the procedure: as §4

A further test has as its target T15, laminin-421 (human, UniProt Q16363 25-1823; P55268 33-1798; P11047 34-1609).
T15 construct: Full-length recombinant human laminin isoform (BioLamina); chains read from the isoform name
Put plainly: ELISA, GF coated, laminin 10 nM. The protocol: as §4

The target in another test is T16, laminin-511 (human, UniProt O15230 36-3695; P07942 22-1786; P11047 34-1609).
T16 construct: Full-length recombinant human laminin isoform (BioLamina); chains read from the isoform name
Put plainly: ELISA, GF coated, laminin 10 nM. The protocol: as §4

The target of a further test is T17, laminin-332 (human, UniProt Q16787 28-1724; Q13751 18-1172; Q13753 22-1193, limits assumed).
T17 construct: Full-length recombinant human laminin isoform (BioLamina); chains read from the isoform name
Description: ELISA, GF coated, laminin 10 nM. The protocol: as §4

T4 sequence (P01127 82-190): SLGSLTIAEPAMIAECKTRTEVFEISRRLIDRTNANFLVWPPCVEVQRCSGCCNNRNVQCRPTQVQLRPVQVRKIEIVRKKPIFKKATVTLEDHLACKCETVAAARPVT
T5 sequence (P09038 143-288): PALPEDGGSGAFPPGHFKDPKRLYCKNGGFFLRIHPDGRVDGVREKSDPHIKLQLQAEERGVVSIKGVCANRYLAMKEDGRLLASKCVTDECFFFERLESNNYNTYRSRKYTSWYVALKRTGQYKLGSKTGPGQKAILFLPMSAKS
T2 sequence (P34741 19-144 limits assumed): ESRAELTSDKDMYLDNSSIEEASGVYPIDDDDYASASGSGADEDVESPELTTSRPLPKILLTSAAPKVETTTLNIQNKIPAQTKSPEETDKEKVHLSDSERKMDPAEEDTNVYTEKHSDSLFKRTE
T17 sequence (Q16787 other isoform, or with tags, fused parts or gaps limits assumed, chain 1 of 3): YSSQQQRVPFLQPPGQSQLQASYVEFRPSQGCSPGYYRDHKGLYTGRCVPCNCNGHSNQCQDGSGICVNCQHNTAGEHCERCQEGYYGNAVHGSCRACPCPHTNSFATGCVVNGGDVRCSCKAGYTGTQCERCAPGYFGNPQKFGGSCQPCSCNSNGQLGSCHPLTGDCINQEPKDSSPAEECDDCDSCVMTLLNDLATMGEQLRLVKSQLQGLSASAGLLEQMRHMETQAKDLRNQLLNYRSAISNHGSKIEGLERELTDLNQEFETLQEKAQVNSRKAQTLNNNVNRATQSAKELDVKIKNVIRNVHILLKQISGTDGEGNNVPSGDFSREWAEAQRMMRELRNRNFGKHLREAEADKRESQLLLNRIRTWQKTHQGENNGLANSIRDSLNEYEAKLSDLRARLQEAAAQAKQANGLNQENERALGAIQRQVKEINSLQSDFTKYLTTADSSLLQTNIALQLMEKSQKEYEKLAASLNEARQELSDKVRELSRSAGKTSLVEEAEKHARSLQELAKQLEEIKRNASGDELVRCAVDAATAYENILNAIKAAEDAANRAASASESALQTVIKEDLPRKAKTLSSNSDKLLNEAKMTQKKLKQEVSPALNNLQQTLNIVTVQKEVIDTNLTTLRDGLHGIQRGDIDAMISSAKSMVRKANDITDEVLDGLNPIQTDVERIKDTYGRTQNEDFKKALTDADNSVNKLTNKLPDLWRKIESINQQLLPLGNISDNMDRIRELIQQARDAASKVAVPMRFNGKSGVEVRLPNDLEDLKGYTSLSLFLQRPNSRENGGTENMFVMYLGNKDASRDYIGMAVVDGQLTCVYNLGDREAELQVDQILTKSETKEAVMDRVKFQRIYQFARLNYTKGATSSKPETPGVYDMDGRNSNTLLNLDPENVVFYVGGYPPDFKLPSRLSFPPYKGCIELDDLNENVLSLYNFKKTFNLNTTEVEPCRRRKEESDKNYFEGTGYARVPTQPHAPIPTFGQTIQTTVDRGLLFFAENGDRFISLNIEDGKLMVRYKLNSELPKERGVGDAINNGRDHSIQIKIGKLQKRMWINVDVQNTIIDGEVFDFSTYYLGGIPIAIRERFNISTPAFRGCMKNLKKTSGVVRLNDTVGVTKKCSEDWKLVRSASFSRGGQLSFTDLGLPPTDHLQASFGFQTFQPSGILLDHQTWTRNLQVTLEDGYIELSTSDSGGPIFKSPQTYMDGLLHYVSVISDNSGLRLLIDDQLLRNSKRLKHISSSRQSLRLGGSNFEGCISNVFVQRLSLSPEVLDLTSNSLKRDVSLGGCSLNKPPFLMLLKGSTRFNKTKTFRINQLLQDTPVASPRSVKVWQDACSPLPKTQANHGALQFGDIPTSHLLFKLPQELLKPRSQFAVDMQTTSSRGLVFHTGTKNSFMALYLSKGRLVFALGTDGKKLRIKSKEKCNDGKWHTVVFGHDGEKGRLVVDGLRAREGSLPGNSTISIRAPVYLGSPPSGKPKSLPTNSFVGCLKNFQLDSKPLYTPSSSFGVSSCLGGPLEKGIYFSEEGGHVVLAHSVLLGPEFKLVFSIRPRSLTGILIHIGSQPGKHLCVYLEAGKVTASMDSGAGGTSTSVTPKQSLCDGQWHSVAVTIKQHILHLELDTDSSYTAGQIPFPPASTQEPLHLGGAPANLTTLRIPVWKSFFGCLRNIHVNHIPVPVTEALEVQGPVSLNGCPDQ
T17 sequence (Q13751 18-1172 limits assumed, chain 2 of 3): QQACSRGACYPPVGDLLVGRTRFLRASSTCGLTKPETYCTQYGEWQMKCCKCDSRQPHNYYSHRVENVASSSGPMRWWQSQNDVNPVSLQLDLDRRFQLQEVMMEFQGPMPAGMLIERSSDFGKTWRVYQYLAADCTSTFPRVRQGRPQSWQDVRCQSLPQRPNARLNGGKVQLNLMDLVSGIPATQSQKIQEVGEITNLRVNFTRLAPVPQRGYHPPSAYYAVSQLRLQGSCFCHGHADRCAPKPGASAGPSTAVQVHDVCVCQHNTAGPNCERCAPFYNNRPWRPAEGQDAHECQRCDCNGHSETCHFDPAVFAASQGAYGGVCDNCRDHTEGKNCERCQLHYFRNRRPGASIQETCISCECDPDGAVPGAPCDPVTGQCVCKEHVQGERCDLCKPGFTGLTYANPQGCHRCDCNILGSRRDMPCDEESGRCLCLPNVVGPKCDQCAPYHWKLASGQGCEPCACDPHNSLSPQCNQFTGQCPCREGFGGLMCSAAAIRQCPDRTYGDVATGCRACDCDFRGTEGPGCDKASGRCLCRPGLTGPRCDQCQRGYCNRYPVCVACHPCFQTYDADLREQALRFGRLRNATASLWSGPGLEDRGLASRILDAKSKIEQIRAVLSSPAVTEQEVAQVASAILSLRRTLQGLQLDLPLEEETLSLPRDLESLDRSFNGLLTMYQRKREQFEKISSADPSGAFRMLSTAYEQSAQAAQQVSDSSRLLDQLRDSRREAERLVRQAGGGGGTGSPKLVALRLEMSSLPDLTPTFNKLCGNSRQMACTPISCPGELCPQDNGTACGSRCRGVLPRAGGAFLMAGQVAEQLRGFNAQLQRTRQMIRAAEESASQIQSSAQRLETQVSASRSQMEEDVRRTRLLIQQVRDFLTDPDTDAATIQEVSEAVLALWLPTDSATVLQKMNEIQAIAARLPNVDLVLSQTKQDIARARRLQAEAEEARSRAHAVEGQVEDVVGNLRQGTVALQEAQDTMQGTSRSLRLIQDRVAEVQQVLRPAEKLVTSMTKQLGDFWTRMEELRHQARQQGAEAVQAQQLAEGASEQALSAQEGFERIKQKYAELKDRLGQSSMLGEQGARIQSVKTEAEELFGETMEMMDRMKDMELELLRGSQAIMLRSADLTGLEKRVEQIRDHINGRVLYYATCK
T17 sequence (Q13753 22-1193 limits assumed, chain 3 of 3): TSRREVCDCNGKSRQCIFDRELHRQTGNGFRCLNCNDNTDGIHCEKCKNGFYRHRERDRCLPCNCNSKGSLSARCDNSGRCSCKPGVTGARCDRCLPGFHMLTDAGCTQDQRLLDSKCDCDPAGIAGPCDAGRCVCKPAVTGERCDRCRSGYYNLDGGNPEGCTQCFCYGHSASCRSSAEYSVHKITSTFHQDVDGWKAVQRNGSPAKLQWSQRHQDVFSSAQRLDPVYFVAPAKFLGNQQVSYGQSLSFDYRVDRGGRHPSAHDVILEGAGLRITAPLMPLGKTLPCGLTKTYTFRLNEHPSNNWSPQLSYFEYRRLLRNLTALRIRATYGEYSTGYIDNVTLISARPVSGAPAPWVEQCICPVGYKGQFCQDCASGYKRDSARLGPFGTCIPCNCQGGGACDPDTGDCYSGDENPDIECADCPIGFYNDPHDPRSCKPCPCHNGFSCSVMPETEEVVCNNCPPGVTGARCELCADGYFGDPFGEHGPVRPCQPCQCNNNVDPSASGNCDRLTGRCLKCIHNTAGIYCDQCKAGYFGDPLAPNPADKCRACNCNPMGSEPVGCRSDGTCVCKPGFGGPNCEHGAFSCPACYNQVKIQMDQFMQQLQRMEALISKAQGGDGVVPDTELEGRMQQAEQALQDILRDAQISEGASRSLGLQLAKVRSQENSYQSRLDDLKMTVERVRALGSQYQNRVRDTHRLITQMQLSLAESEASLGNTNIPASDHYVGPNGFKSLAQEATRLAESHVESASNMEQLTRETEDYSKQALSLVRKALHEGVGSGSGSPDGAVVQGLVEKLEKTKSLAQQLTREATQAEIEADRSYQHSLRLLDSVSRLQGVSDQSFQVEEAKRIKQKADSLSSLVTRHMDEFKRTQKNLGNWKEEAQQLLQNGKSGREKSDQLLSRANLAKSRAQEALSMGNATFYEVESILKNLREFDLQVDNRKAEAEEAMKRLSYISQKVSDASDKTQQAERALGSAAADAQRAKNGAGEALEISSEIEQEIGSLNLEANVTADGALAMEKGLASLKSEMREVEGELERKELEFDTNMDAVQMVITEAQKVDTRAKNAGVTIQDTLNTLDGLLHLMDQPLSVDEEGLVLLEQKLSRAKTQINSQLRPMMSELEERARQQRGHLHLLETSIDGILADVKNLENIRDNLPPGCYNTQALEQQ

On to PLFLLHKKGKNLSKPKASQNKKGGKSK (Chemically synthesized (Genscript)) [laminin α4 1408-1434 peptide (Linker)], for which the binding result in [1], in test [2], in [3], in test [4], in [5] and in test [6] was “binds” in each case. For the same molecule, the binding result in test [7] is on record as “binds”; in [8] it was “no binding (tested: 1 µg/mL)”; in test [9], “no binding (tested: 1 µg/mL)”.

B1: vWF A1 HBD R1341L (peptide)
peptide: YIGLKDRKRPSELLRIASQVKYA
notes: The entry already carries the substitution
Turning to B1, the binding result in [10], in [11] and in test [12] was “no binding” each time.

B2: vWF A1 HBD R1341W (peptide)
peptide: YIGLKDRKRPSELWRIASQVKYA
notes: as for B1
As for B2, the binding result in test [10], in [11] and in test [12] was “no binding” throughout.

B3: vWF A1 HBD R1341S (peptide)
peptide: YIGLKDRKRPSELSRIASQVKYA
notes: as for B1
In the case of B3, the binding result in test [10], in test [11] and in test [12] was “no binding” each time.

B4: vWF A1 HBD R1341Q (peptide)
peptide: YIGLKDRKRPSELQRIASQVKYA
notes: as for B1
For B4, the binding result in test [10], in test [11] and in test [12] was “no binding” in each case.

B5: vWF A1 HBD R1341P (peptide)
peptide: YIGLKDRKRPSELPRIASQVKYA
notes: as for B1
B5: the binding result in test [10], in test [11] and in test [12] was “no binding” each time.
RLVFALGTDGKKLRIKSKEKCNDGK (Chemically synthesized (Genscript)) [laminin α3 3043-3067 peptide (LG4)]: the binding result in [1], in test [2], in [3], in test [4], in test [5] and in [6] was “binds” throughout. Further, the figures for the binding result in test [7], in test [8] and in [9] were “binds”, “no binding (tested: 1 µg/mL)” and “no binding (tested: 1 µg/mL)”, respectively.
Take RQRSRPGRWHKVSVRWEKNR (Chemically synthesized (Genscript)) [laminin α5 3417-3436 peptide (LG4)]: the binding result in [1], in test [2], in test [3], in test [4], in [5] and in test [6] was “binds” each time. For the same molecule, the results for the binding result in [7], in test [8] and in [9] were “binds”, “no binding (tested: 1 µg/mL)” and “no binding (tested: 1 µg/mL)”, respectively.

B6: bone morphogenetic protein (BMP)-7 (ligand, UniProt P18075 293-431, looked up)
chain: STGSKQRSQNRSKTPKNQEALRMANVAENSSSDQRQACKKHELYVSFRDLGWQDWIIAPEGYAAYYCEGECAFPLNSYMNATNHAIVQTLVHFINPETVPKPCCAPTQLNAISVLYFDDSSNVILKKYRNMVVRACGCH
notes: mature; Purchased in mature form
As for B6, the binding result in the test with human plasma-derived vWF is “no binding”; with laminin-111, “no binding (tested: A450 0.1)”; with laminin-521, “no binding (tested: A450 0.1)”; with laminin-411, “no binding (tested: A450 0.1)”; in the test with laminin-211 it was “no binding (tested: A450 0.1)”; with laminin-421 it was “no binding (tested: A450 0.1)”. In addition, the binding result with laminin-511 and with laminin-332 was “no binding (tested: A450 0.1)” each time.

Source of the values: US20240092867A1 (UNIVERSITY OF CHICAGO, published 2024).
